How the values were obtained:
[1] = biological target: T1, recombinant mouse JE/MCP-1 (mouse, UniProt P10148 24-148); assay: ELISA, coated antigen
T1 construct: also called rmJE/MCP-1
Summary of the method: (§1)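 Plates coated overnight at 4° C with MCP-1, MCP-2, MCP-3, MCP-4, RANTES, GRO-alpha, MIP-1 alpha, eotaxin, rat MCP-1 or mouse JE (2 μg/ml, carbonate buffer pH 9.6), blocked with BSA. Hybridoma supernatants bound 2 hours at room temperature; TMB colour developed about 10 minutes.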

[2] = biological target: rat MCP-1 (rat, UniProt P14844 24-148); assay: ELISA, coated antigen
Summary of the method: as §1

[3] = biological target: T2, recombinant human MCP-2 (human, UniProt P80075 24-99); assay: ELISA, coated antigen
T2 construct: also called rhMCP-2
T2 sequence (looked up): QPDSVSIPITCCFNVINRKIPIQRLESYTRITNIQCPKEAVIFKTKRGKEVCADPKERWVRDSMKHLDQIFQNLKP
Summary of the method: as §1

[4] = biological target: T3, recombinant human MCP-3 (human, UniProt P80098 24-99); assay: ELISA, coated antigen
T3 construct: also called rhMCP-3
Summary of the method: as §1

[5] = biological target: T4, recombinant human MCP-4 (human, UniProt Q99616 24-98, limits assumed); assay: ELISA, coated antigen
T4 construct: also called rhMCP-4
Summary of the method: as §1

[6] = biological target: T5, human GRO/MGSA (human, UniProt P09341 35-107); assay: ELISA, coated antigen
T5 construct: also called hGRO/MGSA; GRO-alpha
T5 sequence (looked up): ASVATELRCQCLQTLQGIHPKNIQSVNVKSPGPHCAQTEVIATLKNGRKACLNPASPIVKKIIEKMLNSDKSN
Summary of the method: as §1

[7] = biological target: T6, human MIP-1-alpha (human, UniProt P10147 24-92, limits assumed); assay: ELISA, coated antigen
T6 construct: also called hMIP-1-alpha
T6 sequence (looked up): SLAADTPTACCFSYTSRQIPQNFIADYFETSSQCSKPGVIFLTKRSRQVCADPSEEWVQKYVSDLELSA
Summary of the method: as §1

[8] = biological target: T7, human RANTES (human, UniProt P13501 24-91); assay: ELISA, coated antigen
T7 construct: also called hRANTES
T7 sequence (looked up): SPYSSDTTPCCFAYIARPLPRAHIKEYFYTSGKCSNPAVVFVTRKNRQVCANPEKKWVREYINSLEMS
Summary of the method: as §1

[9] = biological target: T8, human eotaxin (human, UniProt P51671 24-97); assay: ELISA, coated antigen
T8 construct: also called hEotaxin
Summary of the method: as §1

[10] = biological target: T9, human monocyte chemo-attractant protein-1 (MCP-1) (human, UniProt P13500 24-99); assay: cell-based or functional assay
[11] = biological target: T9, human monocyte chemo-attractant …; assay: Biacore, mAb immobilized, MCP-1 injected; Biacore, 25 C, native MCP-1 injected over immobilized mAb
Method: Determination of anti-MCP-1 antibody affinity using Biacore analysis. The antibody/MCP-1 interaction analysis was performed at 25° C. using two CM5 chips docked in Biacore 3000 optical biosensors. Individual flow cells on each chip were activated with a 7-minute injection of NHS/EDC, carbohydrazide was coupled through the NHS ester using a 7-minute injection, and the residual activated groups were blocked with a 7-minute injection of ethanolamine. The monosaccharide residues of each antibody were oxidized using 1 mM sodium metaperiodate in 100 mM sodium acetate, pH 5.5 at 4° C. for 30 minutes. The oxidized antibody was desalted into 100 mM sodium acetate, pH 5.0, to couple the antibody to the carbohydrazide-modified surface. The mAb surfaces were stabilized by reducing the hydrazone bond with 0.1 M sodium cyanoborohydride. The antigen/antibody interaction was tested by injecting 0, 0.049, 0.15, 0.4, 1.3, 4 and 12 nM of MCP-1 (Peprotech, N.J.) in running buffer (10 mM HEPES, 150 mM NaCl, 0.005% surfactant, 200 μg/ml BSA, pH 7.4). The surfaces were regenerated with a 12-second pulse of 15 mM H₃PO₄. The antigen/antibody interaction was tested by injecting duplicate antigen samples diluted in running buffer (10 mM HEPES, […], 0.005% surfactant, 200 μg/mL BSA, pH 7.4), in a 300-fold concentration range. The surfaces were regenerated with a 12-second pulse of 15 mM H₃PO₄. To determine the kinetics of each interaction, the data sets were fit globally to a 1:1 interaction model that included a parameter for mass transport.

[12] = biological target: T9, human monocyte chemo-attractant …; assay: ELISA, coated antigen; ELISA, purified clone 1:50 on coated hMCP-1 (2 ug/mL), cross-reactivity panel
Method: Determining cross-reactivity of anti-MCP-1 antibodies with other chemokines. ELISA plates (Fisher Cat. No. 12-565-136) were coated with 50 μl/well of MCP-1, MCP-2, MCP-3, MCP-4, RANTES, GRO-alpha, MIP-1 alpha, eotaxin, rat MCP-1 and mouse JE (2 μg/ml) in coating buffer (0.1 M carbonate buffer, pH 9.6, NaHCO₃ 8.4 g/L, then incubated at 4° C. overnight. After incubation, the plates were washed with washing buffer (0.05% Tween 20 in PBS) three times. 200 μL/well blocking buffer (0.5% BSA, 0.1% Tween 20, 0.01% Thimerosal in 1×PBS) were added and the plates incubated at room temperature for 1 hour. After incubation, the plates were washed with washing buffer three times. 50 μL/well of hybridoma supernatants, and positive and negative controls (positive control was anti-MCP-1 antibody purchased from R&D Sciences, and negative control was an antibody to Keyhole Limpet Hemocyanin produced at Abgenix) were added and the plates incubated at room temperature for 2 hours. After incubation, the plates were washed three times with washing buffer. […] After incubation, the plates were washed three times with washing buffer and 100 μL/well of TMB (BioFX Lab. Cat. #TMSK-0 100-01) was added and the plates allowed to develop for about 10 minutes.

[13] = biological target: T9, human monocyte chemo-attractant …; assay: ELISA, hybridoma supernatant on coated MCP-1; ELISA, hybridoma supernatant on plate-coated non-reduced MCP-1 (2 ug/mL)
Method: Selection of candidate antibodies for ELISA. After 14 days of culture, hybridoma supernatants were screened for MCP-1-specific monoclonal antibodies. The ELISA plates (Fisher, Cat. No. 12-565-136) were coated with 50 μl/well of MCP-1 (2 μg/mL) in Coating Buffer (0.1 M Carbonate Buffer, pH 9.6, NaHCO₃8.4 g/L), then incubated at 4° C. overnight. After incubation, the plates were washed with Washing Buffer (0.05% Tween 20 in PBS) three times. 200 μl/well Blocking Buffer (0.5% BSA, 0.1% Tween 20, 0.01% Thimerosal in 1× PBS) were added and the plates incubated at room temperature for 1 hour. After incubation, the plates were washed with Washing Buffer three times. 50 μL/well of hybridoma supernatants, and positive and negative controls were added and the plates incubated at room temperature for 2 hours.
The positive control used throughout was XMG2 MCP-1 Group 1, footpad N160-7 and the negative control was XMG2 KLH Group 1, footpad L627-6. After incubation, the plates were washed three times with Washing Buffer. […] In the secondary screen, three sets of samples (positives in first screening) were screened, one set for hIgG detection, one set for hKappa detection, and one set for hlambda detection. After incubation, the plates were washed three times with Washing Buffer. 100 μL/well of TMB (BioFX Lab. Cat. #TMSK-0100-01) were added and the plates allowed to develop for about 10 minutes (until negative control wells barely started to show color), then 50 μL/well stop solution (TMB Stop Solution (BioFX Lab. Cat. #STPR-0100-01) were added and the plates read on an ELISA plate reader at wavelength 450 nm. The OD readings from the positive wells are presented in Table 9.

[14] = biological target: T3, recombinant human MCP-3; assay: cell-based or functional assay
[15] = biological target: T2, recombinant human MCP-2; assay: Biacore 2000, mAb immobilized, antigen injected
Method: (§2) The interaction analysis was performed at 25° C. using two CM5 chips docked in Biacore 2000 optical biosensors. Individual flow cells on each chip were activated with a 7-minute injection of NHS/EDC, carbohydrazide was coupled through the NHS ester using a 7-minute injection, and the residual activated groups were blocked with a 7-minute injection of ethanolamine. […] The oxidized antibody was desalted into 10 mM sodium acetate, pH 5.0, to couple the antibody to the carbohydrazide-modified surface. […] The mAb surfaces were stabilized by reducing the hydrazone bond with 0.1 M sodium cyanoborohydride. The antigen/antibody interaction was tested by injecting duplicate antigen samples diluted in running buffer (10 mM HEPES, 150 mM NaCl, 0.005% surfactant, 200 μg/mL BSA, pH 7.4), in a 300-fold concentration range. The surfaces were regenerated with a 12-second pulse of 15 mM H₃PO₄.

[16] = biological target: T3, recombinant human MCP-3; assay: Biacore 2000, mAb immobilized, antigen injected
Method: as §2

[17] = biological target: T4, recombinant human MCP-4; assay: Biacore 2000, mAb immobilized, antigen injected
Method: as §2

[18] = biological target: T9, human monocyte chemo-attractant …; assay: Biacore 2000, mAb immobilized, antigen injected; Biacore, 25 C, native MCP-1 injected over immobilized mAb 3.11.2 (250 RU)
Method: as §2

T9 sequence (P13500 24-99): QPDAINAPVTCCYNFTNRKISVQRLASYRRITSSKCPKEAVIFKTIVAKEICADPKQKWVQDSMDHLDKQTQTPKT
T4 sequence (Q99616 24-98 limits assumed): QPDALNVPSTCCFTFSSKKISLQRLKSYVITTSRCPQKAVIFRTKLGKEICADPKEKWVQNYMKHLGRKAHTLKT
T3 sequence (P80098 24-99 limits assumed): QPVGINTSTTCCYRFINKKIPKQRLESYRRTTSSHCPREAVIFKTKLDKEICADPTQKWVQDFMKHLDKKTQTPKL
Chain of rat MCP-1 (P14844 24-148 limits assumed): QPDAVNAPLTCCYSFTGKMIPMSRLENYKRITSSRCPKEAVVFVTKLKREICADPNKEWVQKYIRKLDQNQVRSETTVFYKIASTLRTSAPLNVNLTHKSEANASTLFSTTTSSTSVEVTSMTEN
T8 sequence (P51671 24-97 limits assumed): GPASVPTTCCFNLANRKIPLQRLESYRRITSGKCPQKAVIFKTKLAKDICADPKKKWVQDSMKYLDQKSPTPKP
T1 sequence (P10148 24-148 limits assumed): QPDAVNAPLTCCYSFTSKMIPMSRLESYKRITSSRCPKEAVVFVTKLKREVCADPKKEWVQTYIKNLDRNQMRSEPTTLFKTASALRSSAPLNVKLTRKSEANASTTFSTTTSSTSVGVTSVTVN

Binder | ELISA OD [1] [OD450] | ELISA OD [2] [OD450] | ELISA OD [3] [OD450] | ELISA OD [4] [OD450] | ELISA OD [5] [OD450] | ELISA OD [6] [OD450] | ELISA OD [7] [OD450] | ELISA OD [8] [OD450] | ELISA OD [9] [OD450] | IC50 Ca++ Flux [10] [µg/mL] | IC50 Chemotaxis [10] [µg/mL] | ELISA OD [12] [OD450] | ELISA OD-MCP-1 [13] [OD450] | also measured
anti-MCP-1 mAb 5.3.1 (antibody, V domains shown) VH: QVQLVQSGAEVKKPGASVKVSCKVSGYTLSELSMHWVRQAPGKGLEWMGGFDPEDGETIYAQKFQGRVTMTEDTSTDTAYMELSSLRSEDTAVFYCATKREYSGYFDYWGQGTLVTVSS VL: DIVMTQSPDSLAVSLGERATINCKSSQSVLYSSNSKNYLAWFQQKPGQPPKLLIYWASTRESGVPDRFSGSGSGTDFTLTISRLQAEDVAVYSCQQYFITPWTFGQGTKVELKR | 0.05 | 0.047 | 0.043 | 0.045 | 0.043 | 0.045 | 0.042 | 0.045 | 0.042 | 1.8 | 2.6 | 0.272 | 4 | Kd [11]: 0.45 nM
anti-MCP-1 mAb 3.11.1 (antibody, human IgG4, kappa, V domains shown) VH: QVQLQESGPGLVKPSQTLSLTCTVSGGSISSGGNYWNWIRQHPGKGLEWIGYIYYSGNTYYNPSLKSRITISIDTSKNQFSLTLSSVTAADTAVYYCARDGGDDAFDIWGQGTMVTVSS VL: DIQMTQSPSSLSASVGDRVTITCQASQDISNYLNWYQQKPGKAPKLLIYDASNLETGVPSRFSGSGSGTDFTFTINSLQPEDIATYYCQEYNNLPYSFGQGTKLEIKR | 0.063 | 0.057 | 0.336 | 1.32 | 0.981 | 0.054 | 0.053 | 0.064 | 0.339 | 0.092 | 0.33 | 0.803 | 4 | IC50, inhibition of MCP-3-induced migration of THP-1 cells (chemotaxis assay, MCP3 at 0.166 nM) [14]: 0.139 nM; Kd [15]: 0.046 nM; koff [15]: 0.012 s⁻¹; kon [15]: 2.6e+08 M⁻¹ s⁻¹; Kd [16]: 0.049 nM; koff [16]: 0.0074 s⁻¹; kon [16]: 1.5e+08 M⁻¹ s⁻¹; Kd [17]: 0.0037 nM; koff [17]: 0.00055 s⁻¹; kon [17]: 1.5e+08 M⁻¹ s⁻¹; Kd [18]: 0.0033 nM; koff [18]: 0.001 s⁻¹; kon [18]: 3e+08 M⁻¹ s⁻¹

— patent publication US20050058639A1 (AstraZeneca / MedImmune, published 2005)
